Common to all, as to experiment: ZFP domain; assay not described
Holding throughout (settings): tags: FokI C-terminal, 4-aa linker

Series [1] concerns the target sca-36c ZFP-FokI (synthetic).
For series [2], the target named is sca-r29b ZFP-FokI (synthetic).
Series [3] has as its target sca-36b ZFP-FokI (synthetic).
Series [4] has as its target sca-36a ZFP-FokI (synthetic).

sca-36c ZFP-FokI (synthetic), sequence (chain, as listed by the source): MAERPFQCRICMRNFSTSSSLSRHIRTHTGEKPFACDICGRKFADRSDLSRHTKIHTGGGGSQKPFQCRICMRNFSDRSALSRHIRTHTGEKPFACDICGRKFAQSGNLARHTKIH
sca-36b ZFP-FokI (synthetic), sequence (chain, as listed by the source): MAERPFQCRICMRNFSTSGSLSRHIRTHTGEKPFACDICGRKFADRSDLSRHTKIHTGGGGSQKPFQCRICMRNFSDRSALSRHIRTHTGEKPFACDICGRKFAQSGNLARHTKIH
sca-36a ZFP-FokI (synthetic), sequence (chain, as listed by the source): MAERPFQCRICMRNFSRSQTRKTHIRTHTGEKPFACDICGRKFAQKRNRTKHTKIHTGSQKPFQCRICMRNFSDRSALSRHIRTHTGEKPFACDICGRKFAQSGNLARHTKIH
sca-r29b ZFP-FokI (synthetic), sequence (chain, as listed by the source): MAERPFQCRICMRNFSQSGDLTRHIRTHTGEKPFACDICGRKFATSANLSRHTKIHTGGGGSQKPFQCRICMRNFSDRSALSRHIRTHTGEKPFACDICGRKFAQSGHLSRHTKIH

B1: sca-36c site (dsDNA)
DNA 1: GAAGTCTGCCGTT
DNA 2: AACGGCAGACTTC
On to B1, for which the binding result in series [1] is reported as “binds”.

B2: sca-r29b site (dsDNA)
DNA 1: ACGTAGACTGAGG
DNA 2: CCTCAGTCTACGT
B2: in series [2], the binding result is recorded as “binds”.

B3: sca-36b site (dsDNA)
DNA 1: GAAGTCTGCCGTT
DNA 2: AACGGCAGACTTC
B3: the binding result in series [3] is “binds”.

B4: sca-36a site (dsDNA)
DNA 1: GAAGTCTGCCGT
DNA 2: ACGGCAGACTTC
In the case of B4, the binding result in series [4] is reported as “binds”.

These data come from US20090258363, “Targeted integration and expression of exogenous nucleic acid sequences” (Sangamo BioSciences, Inc., published 2009).
